In patent US20200392219A1, “EXTRACELLULAR VESICLES COMPRISING MEMBRANE-TETHERED TGF-BETA, COMPOSITIONS AND METHODS OF USE THEREOF” (TRUSTEES OF TUFTS COLLEGE, priority 2017, published 2020):

B1: heparinase: heparinase III (Sigma), disrupts heparin sulfate side chains on beta-glycan (protein, UniProt Q59289 25-659, looked up)
Heparin-sulfate lyase: QSSSITRKDFDHINLEYSGLEKVNKAVAAGNYDDAAKALLAYYREKSKAREPDFSNAEKPADIRQPIDKVTREMADKALVHQFQPHKGYGYFDYGKDINWQMWPVKDNEVRWQLHRVKWWQAMALVYHATGDEKYAREWVYQYSDWARKNPLGLSQDNDKFVWRPLEVSDRVQSLPPTFSLFVNSPAFTPAFLMEFLNSYHQQADYLSTHYAEQGNHRLFEAQRNLFAGVSFPEFKDSPRWRQTGISVLNTEIKKQVYADGMQFELSPIYHVAAIDIFLKAYGSAKRVNLEKEFPQSYVQTVENMIMALISISLPDYNTPMFGDSWITDKNFRMAQFASWARVFPANQAIKYFATDGKQGKAPNFLSKALSNAGFYTFRSGWDKNATVMVLKASPPGEFHAQPDNGTFELFIKGRNFTPDAGVFVYSGDEAIMKLRNWYRQTRIHSTLTLDNQNMVITKARQNKWETGNNLDVLTYTNPSYPNLDHQRSVLFINKKYFLVIDRAIGEATGNLGVHWQLKEDSNPVFDKTKNRVYTTYRDGNNLMIQSLNADRTSLNEEEGKVSYVYNKELKRPAFVFEKPKKNAGTQNFVSIVYPYDGQKAPEISIRENKGNDFEKGKLNLTLTINGKQQLVLVP
B2: heat-inactivated heparinase: heat-inactivated heparinase (control) (protein, UniProt Q59289 25-659, looked up)
Heparin-sulfate lyase: B1 Heparin-sulfate lyase
modifications: heat-inactivated
B3: RNase: RNAse A enzyme used to pre-treat EV (protein, UniProt P61823 27-150, looked up)
Ribonuclease pancreatic: KETAAAKFERQHMDSSTSAASSSNYCNQMMKSRNLTKDRCKPVNTFVHESLADVQAVCSQKNVACKNGQTNCYQSYSTMSITDCRETGSSKYPNCAYKTTQANKHIIVACEGNPYVPVHFDASV
B4: proteinase K: protease used with RNAse A to pre-treat EV (protein, UniProt P06873 106-384, looked up)
Proteinase K: AAQTNAPWGLARISSTSPGTSTYYYDESAGQGSCVYVIDTGIEASHPEFEGRAQMVKTYYYSSRDGNGHGTHCAGTVGSRTYGVAKKTQLFGVKVLDDNGSGQYSTIIAGMDFVASDKNNRNCPKGVVASLSLGGGYSSSVNSAAARLQSSGVMVAVAAGNNNADARNYSPASEPSVCTVGASDRYDRRSSFSNYGSVLDIFGPGTSILSTWIGGSTRSISGTSMATPHVAGLAAYLMTLGKTTAASACRYIADTANKGDLSNIPFGTVNLLAYNNYQA
B5: TGF-β3: recombinant human TGF-β3 (Sigma) (protein, UniProt P10600 301-412, looked up)
Transforming growth factor …: ALDTNYCFRNLEENCCVRPLYIDFRQDLGWKWVHEPKGYYANFCSGPCPYLRSADTTHSTVLGLYNTLNPEASASPCCVPQDLEPLTILYYVGRTPKVEQLSNMVVKSCKCS

Tested on: CD4+ T cells (ConA-stimulated PBMC)
Assay: ConA mitogen-induced CD4+ T cell proliferation in CFSE-stained PBMC (PBMC responder/suppression assay)
Type: cell-based, canine
Conditions: for effect of pre-treating WJ-MSC EV on their suppression of CD4+ T cell division: 0.1% Triton-X, 2 μg/ml RNAse A, proteinase K 30 min 37°C, heparinase 0.006 U/ml 3 hours, 10^4 EV:1 PBMC
Protocol: Serum-free culture medium from canine Wharton's Jelly mesenchymal stem cells (WJ-MSC: CD44^+, CD90^+, CD34^−, CD45^−, MHCII^−, n=6 cell lines) was collected after 48 hours, and extracellular vesicles (WJ-EV) were isolated by differential centrifugation. WJ-EV output was assessed using single vesicle nanoparticle tracking analysis (NTA). CFSE-stained peripheral blood mononuclear cells (PBMC) were collected from healthy dogs (n=8), exposed to Concanavalin A mitogen (ConA; 5 μg/ml) and co-incubated with WJ-MSC (1:10) across transwell membrane (0.4 μm pore size) or with WJ-MSC EV (1:10^4)±10 μM SB431542 (TGFβR1 inhibitor) or TGF-β neutralizing (e.g., inhibiting) antibody (Ab) for 72 hours. Analysis of CFSE fluorescence using FlowJo (v7.6.5) yielded % CD4^+ cells that had undergone division (T-cell proliferation).
PBMC responder assay: Twelve healthy adult purpose-bread Beagle dogs (5 neutered males, 7 spayed females) housed at the Laboratory Animal Medicine department at the Cummings School of Veterinary Medicine at Tufts University served as blood donors under an approved protocol. […] or WJ-MSC were tested in triplicate against a minimum of 3 different PBMC donor cell samples (see Figure legends for ‘n’ of each experiment). Healthy status was confirmed by clinical examination, and hematological and serum biochemical testing within six months of blood sampling. All dogs were fasted for 12 hours prior to peripheral blood sampling. Peripheral blood samples were taken via jugular venipuncture using a 21 gauge needle, and blood was immediately placed into an EDTA collection tube and rotated 1-2 times gently. Blood was diluted 1:1 with cold PBS or centrifuged (1300×g, 10 min) prior to dilution 1:2 in PBS, followed by density-gradient centrifugation using Ficoll-Paque (density 1.077; GE Healthcare Life Sciences) to harvest peripheral blood mononuclear cells (PBMC). PBMC were washed in RPMI (Life Technologies) supplemented with 10% heat-inactivated fetal bovine serum (Gibco), […] (Life Technologies), 100 μM β-mercaptoethanol (Sigma-Aldrich), 10,000 U/ml penicillin-streptomycin, 2 mM L-glutamine (Life Technologies), and 2.2 mg/mL of sodium bicarbonate (Thermo Fisher Scientific) (complete RPMI, ‘cRPMI’). For mitogen induced lymphocytes proliferation assays, PBMC were suspended in 1 ml cRPMI and 0.5 μof 10 mM carboxyfluorescein succinimidyl ester (CFSE, Thermo Fisher Scientific) and were incubated (10 min). For initial characterization of WJ-MSC effects on responder PBMC, PBMC were plated on a 24-well plate on the top of a 0.4 μm Transwell (Corning) across from the WJ-MSC in a 10:1 ratio (PBMC:MSC) in a total volume of 1 ml medium (n=3 technical replicates/sample). All plates were incubated at 37° C. in the dark for 72 hours prior to analysis.
Dose-responses of TV MSC-EV: To investigate the dose response of PBMC to WJ-MSC EV, the […] were plated on a 96-well plate in cRPMI with addition of 1 mM ATP, with or without 5 μg/ml Concanavalin A (ConA, Sigma-Aldrich). Responder PBMC were incubated with WJ-MSC EV in a total volume of 200 μL medium (n=3 technical replicates per sample). PBMC were incubated with WJ-MSC EV in a 1:10^2, 1:10^3, or 1:10^4 (PBMC:EV) ratio. After 72 hours of incubation, the PBMC were collected and surface stained for CD4 (rat anti-canine CD4-Alexa 647, clone YKIX302.9, AbD Serotec). Cells were stained for 30 minutes, washed twice with cold PBS and 5% FBS, and resuspended in 200 μl PBS and 5% FBS with 5 μl 7AAD (Becton Dickinson) for analysis by flow cytometry (Accuri C6, Becton Dickinson). The effect of WJ-MSC or WJ-MSC EV on CD4-positive (CD4^+) T cell (i.e., T helper cell) proliferation (percentage of cells proliferating, number of divisions for proliferating cells) was measured by evaluating CFSE fluorescence utilizing the FlowJo® proliferation platform (FlowJo, V10, Ashland, Oreg.) after gating on the viable CD4^+ lymphocyte population. […]

Molecule | effect of pre-treating WJ-MSC EV on their suppression of CD4+ T cell division | suppression of mitogen driven T cell division by exogenous TGF-β (5 ng/ml added to ConA stimulated PBMC) | suppression of mitogen driven T cell division by exogenous TGF-β (10 ng/ml added to ConA stimulated PBMC) | suppression of mitogen driven T cell division by exogenous TGF-β (50 ng/ml added to ConA stimulated PBMC)
B1 | reduced EV suppression |  |  | 
B2 | absent |  |  | 
B3 | reduced |  |  | 
B4 | reduced |  |  | 
B5 |  | not | suppressed | suppressed
